Molecular target: AMPA glutamate receptor subunit GluA1 (mouse (endogenous in primary hippocampal neurons)) (UniProt P23818)
Assay: co-IP; endogenous proteins in lysates of hippocampal neurons treated with vehicle (CTR) or IPA (insulin 20 nM + palmitic acid 0.2 mM); IP buffer KCl 50 mM, Tris-HCl 50 mM pH 8, EDTA 10 mM, 1% Nonidet P-40; specific antibody or IgG (negative control) with protein G-sepharose 4B, 6 h at 4 °C; six washes; immunoblot

Sequence of UniProt P23818 (P23818 19-907): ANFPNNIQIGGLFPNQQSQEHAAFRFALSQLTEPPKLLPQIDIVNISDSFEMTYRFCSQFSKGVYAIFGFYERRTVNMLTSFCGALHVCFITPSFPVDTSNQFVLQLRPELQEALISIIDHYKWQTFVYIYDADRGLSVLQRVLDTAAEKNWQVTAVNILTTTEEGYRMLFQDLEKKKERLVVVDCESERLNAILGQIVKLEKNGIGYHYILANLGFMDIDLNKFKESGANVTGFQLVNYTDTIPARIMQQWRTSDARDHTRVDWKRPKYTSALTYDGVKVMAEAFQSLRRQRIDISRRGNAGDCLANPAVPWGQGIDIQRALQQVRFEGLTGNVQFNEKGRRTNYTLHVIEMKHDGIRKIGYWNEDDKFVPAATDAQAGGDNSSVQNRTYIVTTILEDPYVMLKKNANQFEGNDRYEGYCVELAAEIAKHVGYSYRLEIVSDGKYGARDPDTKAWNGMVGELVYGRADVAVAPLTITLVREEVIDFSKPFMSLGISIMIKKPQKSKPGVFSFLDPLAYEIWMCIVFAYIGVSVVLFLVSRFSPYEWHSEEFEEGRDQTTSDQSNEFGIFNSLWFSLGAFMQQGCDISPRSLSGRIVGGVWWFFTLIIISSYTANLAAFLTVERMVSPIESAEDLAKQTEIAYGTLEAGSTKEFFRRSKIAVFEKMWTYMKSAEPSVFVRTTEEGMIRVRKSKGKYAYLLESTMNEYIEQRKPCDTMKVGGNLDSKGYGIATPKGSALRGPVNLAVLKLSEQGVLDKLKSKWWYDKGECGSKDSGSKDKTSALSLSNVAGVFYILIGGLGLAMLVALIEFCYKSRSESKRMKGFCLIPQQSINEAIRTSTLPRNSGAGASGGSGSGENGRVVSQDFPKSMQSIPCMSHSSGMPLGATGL

change of the co-precipitated amount after IPA against vehicle control: -74%
Substance: actin (from UniProt P60710 1-375) (natural protein)
